Read-outs that look alike come from different tables or passages of the source.
Tests used:
Experiment in all cases: ITC
[1] = target: PWWP domain of dP75 (residues 8-91) (Drosophila)
[2] = target: dP75 IBD-containing C-terminus region (residues 209-445) (Drosophila)
[3] = target: dP75 IBD-containing C-terminus region (residues 209-445) (Drosophila); remark: listed apart in the source

For H3K36me3 peptide, the Kd [1] was over 500 µM.

Molecule “Jil-1 peptide from the proximal site (…; residues 984-1004)” has a Kd [2] of 0.8 µM.

KREENFYGFSK [Jil-1 peptide at the distal site (…; residues 1102-1112)] showed a Kd [3] of 120 µM.

Reference: doi:10.1101/856021
